Laboratory results reported in paper PMC9942873 (Immunity, 2023).

Legend:
Test in all cases: ELISA
Settings in all cases: both partners purified
[1] = target: T1, recombinant full-length Pfs48/45 (Plasmodium falciparum 3D7, UniProt Q8I6T1)
[2] = target: T2, Pfs48/45 D1-2 (Plasmodium falciparum 3D7, UniProt Q8I6T1)
[3] = target: T3, Pfs48/45 D2-3 (Plasmodium falciparum 3D7, UniProt Q8I6T1)
[4] = target: T1, recombinant full-length Pfs48/45; remark: listed apart in the source
[5] = target: T2, Pfs48/45 D1-2; remark: listed apart in the source
[6] = target: T3, Pfs48/45 D2-3; remark: listed apart in the source

Measured: binding result

T2 sequence (Q8I6T1 28-289): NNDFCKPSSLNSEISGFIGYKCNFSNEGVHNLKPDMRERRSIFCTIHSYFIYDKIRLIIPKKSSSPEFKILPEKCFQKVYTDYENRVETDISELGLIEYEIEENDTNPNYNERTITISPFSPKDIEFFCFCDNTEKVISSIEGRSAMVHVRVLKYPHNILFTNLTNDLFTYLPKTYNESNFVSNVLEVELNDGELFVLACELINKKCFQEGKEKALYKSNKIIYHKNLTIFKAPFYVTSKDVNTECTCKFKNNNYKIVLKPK
T3 sequence (Q8I6T1 184-428): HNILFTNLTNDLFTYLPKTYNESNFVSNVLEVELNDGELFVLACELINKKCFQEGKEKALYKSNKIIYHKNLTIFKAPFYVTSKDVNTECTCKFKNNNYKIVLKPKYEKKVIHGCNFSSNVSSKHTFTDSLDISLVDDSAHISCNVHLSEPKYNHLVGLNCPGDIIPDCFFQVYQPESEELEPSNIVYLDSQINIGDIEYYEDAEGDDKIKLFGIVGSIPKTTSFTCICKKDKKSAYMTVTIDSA
T1 sequence (Q8I6T1 28-428): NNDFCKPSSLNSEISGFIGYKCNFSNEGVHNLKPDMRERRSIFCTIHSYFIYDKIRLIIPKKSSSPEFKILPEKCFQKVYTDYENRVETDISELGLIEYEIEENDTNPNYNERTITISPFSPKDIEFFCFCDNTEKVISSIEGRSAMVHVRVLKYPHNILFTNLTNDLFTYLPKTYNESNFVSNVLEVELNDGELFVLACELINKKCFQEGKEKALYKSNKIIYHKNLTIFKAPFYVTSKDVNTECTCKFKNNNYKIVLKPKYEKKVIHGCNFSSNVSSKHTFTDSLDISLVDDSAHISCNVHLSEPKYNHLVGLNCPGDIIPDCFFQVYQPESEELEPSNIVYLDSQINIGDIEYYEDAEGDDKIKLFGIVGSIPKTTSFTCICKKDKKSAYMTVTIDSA

B1: RUPA-63 (antibody, V domains shown)
VH: QVQLVQSGAEVKKTGASVKVSCKASGYTFTSHDIIWVRQAAGQGLEWMGWMNPNTGKKGYAQRFQGRITLTRNMSTGTAYMELGSLRSDDSAIYYCARGVGTYYGSEGWLDPWGQGTLVTVSS
VL: QSVLTQPPSASETPGQRVTISCSGSSSNVGSNTVNWYQQLPGTAPKLLMYNTNQRPSGVPDRFSGSKSGTSASLAISGLRSEDEADYYCAAWDDSLKRGVFGGGTRLTVL
notes: human IgG1; source: recombinant human IgG1, 293T (Protein A purified) or GenScript
binds: [1] | [2] | [3]

B2: RUPA-65 (antibody, V domains shown)
VH: QVQLVQSGAEVKKPGASVKVSCKASGYTFLYHDIIWMRQATGQGPEWMGWINPNTGNTGHAQKFQGRVTLTRNMSSGTAYMELRSLRSEDTAVYYCARGVGTYHGSGGWFDPWGQGTLVTVSS
VL: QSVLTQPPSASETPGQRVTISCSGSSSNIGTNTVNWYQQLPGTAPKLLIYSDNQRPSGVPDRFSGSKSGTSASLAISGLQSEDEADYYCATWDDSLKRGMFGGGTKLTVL
notes: as for B1
binds: [1] | [2] | [3]

B3: RUPA-68 (antibody, V domains shown)
VH: QVQLVQSGAELKKPGASVKVSCKASGYTFTSHDITWVRQAAGQGLEWMGWMNPNTGDKGYAQKFQGRVTMTRNMSTRTAYMEVNSLTSEDTAVYYCARGVGTYHGAGGWFDPWGQGTLVTVSS
VL: QSVVTQPPSVSETPGQRVTISCSGSSSNIGSNIVSWYQQLPGTAPKLLIYSDNQRPSGVPDRFSASKSGTSASLAISGLQSEDEADYYCATWDDSLKRGVFGGGTKLTVL
notes: as for B1
binds: [1] | [2] | [3]

B4: RUPA-74 (antibody, V domains shown)
VH: QVQLVQSGAEVKKPGASVKVSCKASGYNFLYHDINWVRQAPGQGLEWMGWMNPNTGNRGYAQQFQDRVSLTRDMSQGTAYMELRNLRSDDTAVYYCARGVGSLYGSGGWIDPWGQGTLVTVSS
VL: QSVLTQPPSASETPGQRVTISCSGSSSNIGSNTVNWYQQVPGTAPKLLMYNDNHRPSGVSDRFSGSKSGTSASLAISGLQSADEADYYCETWDDSLKRRVFGGGTKLTVL
notes: as for B1
binds: [1] | [2] | [3]

B5: RUPA-81 (antibody, V domains shown)
VH: EVQLVATGGGLIQPGGSLRLSCTASGFNVSRMYMSWVRQAPGKGLEWVSVIYSDSSGGSTYYTDSLKGRFIISRDNSQNTLYLQMNSLRVDDTAIYYCARDVRGWGYLDFWGQGTLVTVSS
VL: EIVLTQSPGTLSLSPGERAALSCRASQGVSSSFFAWYQQKPGQAPRLLIYGASSRATGIPDRFSGSGSGTDFTLTISRLEPEDFATYYCQQYGYSPWTFGQGTKVEIK
notes: as for B1
binds: [1] | [2] | [3]

B6: RUPA-83 (antibody, V domains shown)
VH: QVQLVQSGAEVKKPGASVKVSCKASGYIFTDYGITWVRQAPGQGLEWLGWISGYSYNTNYALKFQGRVTMTTDTSTSVTYMELRNLRSDDTAVYYCARDSRSSQLLQKFDLWGQGTLVTVSS
VL: DIQLTQSPSSLSASVGDRVTITCRASQTTRNFLNWYQQKPGKAPELLIYAASTLQSGVPSRFSGSGSGTDFTLTIKNLQPEDFASYYCQQSFSSPTFGQGTKVEIK
notes: as for B1
binds: [1] | [2] | [3]

B7: RUPA-84 (antibody, V domains shown)
VH: QVQLVQSGAEVKKTGASVKVSCKASGYTFTSHDIIWVRQAAGQGLEWMGWMNPNTGKKGYAQKFQGRVTLTRNMSTGTAYMELNSLRSDDSAVYYCARGVGTYYGSEGWLDPWGQGTLVTVSS
VL: QSVLTQPPSASETPGQRVTISCSGSSSNVGSNSVNWYQQLPGTAPKLLMYNTNQRPSGVPDRFSGSKSGTSASLAISGLRSEDEADYYCATWDDSLKRGVFGGGTKLTVL
notes: as for B1
binds: [1] | [2] | [3]

B8: RUPA-147 (antibody, V domains shown)
VH: QVQLVQSGAEVKKPGASVKVSCTASGYNFLTHDISWVRQATGQGLEWMGWMNPNTGKKGYVQKFQGRVTMDRDMSKSTAYMELRSLTSEDTAVYYCVRGVGSYYGSGGWFDPWGQGTLVTVSS
VL: QSVLTQPPSASETPGQKVTISCSGSSSNIGSDTVSWYVQLPGTAPKLLIYNDNQRPSRVPDRFSGSKSGTSASLAISGLQSEDEADYYCATWDASLKRRVFGGGTTLTVL
notes: as for B1
binds: [4] | [5] | [6]

B9: RUPA-148 (antibody, V domains shown)
VH: QVQLVQSGAEVKKPGASVKVSCTASGYNFLTHDISWVRQATGQGLEWMGWMNPNTGKKGYVQKFQGRVTMDRDMSKSTAYMELRSLTSEDTAVYYCVRGVGSYYGSGGWFDPWGQGTLVTVSS
VL: QSVLTQPPSASETPGQKVTISCSGSSSNIGSDTVSWYVQLPGTAPKLLIYNDNQRPPGVPDRFSGSKSGTSASLAISGLQSEDEADYYCATWDASLKRRVFGGGTTLTVL
notes: as for B1
binds: [4] | [5] | [6]

B10: RUPA-149 (antibody, V domains shown)
VH: EVQLVESGGGVVQPGGSLRLSCAASGFTFSNFGMHWVRQAPGKGLEWVAKISYDGSNKYYADFVKGRFTISRDKATNTVHLQMNSLSAEDRGIYYCAKDKVFGVVANHHQYGLDVWGQGTTVTVSS
VL: DIQMTQSPASLSASVGDRVTITCRASQNIHLYLHWYQQKPGKAPELLIFTTNTLHRGVPSRFRGSGSGTEFALTISDLQPEDFATYYCQQSYTTPHFTFGQGTKLEIK
notes: as for B1
binds: [4] | [5] | [6]

B11: RUPA-150 (antibody, V domains shown)
VH: QVQLQQWGAGLLKPSETLSLTCLVNGGSFSDYYWSWIRQPPGRGLEWIGDVNHSGTTNHRPSLQSRVTLSLDMSKNQFSLKLTSVTAADTAVYFCARRSSGYYRGSRYTGWFDPWGQGTLVTVSS
VL: EIVMTQSPATLSVSPGERATLSCRASQSVSSNLAWYQQKPGQTPRLLIYGSSTRATGIPARFSGSGSGTEFALTISSLQSEDFAVYYCQQYNNWPPPWTFGQGTKVEIK
notes: as for B1
binds: [4] | [5] | [6]

B12: RUPA-151 (antibody, V domains shown)
VH: QVQLVQSGAEVKKTGASVKVSCKASGYTFTSHDIIWVRQAAGQGLEWMGWLNPNTGKKGYVEKFQGRVMLTRNMSTGTAYMELSSLRSDDSAIYYCARGVGTYHGSEGWLDPWGQGTLVTVSS
VL: QSVLTQPPSASETPGQGVTISCSGSSSNVGSNAVNWYQQLPGRAPKLLMYNTNQRPSGVPDRFSGSKSGTSASLAISGLRSADEADYYCAAWDDSLKRGVFGGGTKLTVL
notes: as for B1
binds: [4] | [5] | [6]

B13: RUPA-153 (antibody, V domains shown)
VH: QVQLQESGPGLVKPSQTLSLTCTVSGSSVSSGGYYWSWIRQHPGKGLEWIGYLYYSGNTGNTFYNPSLKSRVTISADPSKNQFSLELSSVTAADTAMYYCARAVGVGRYFGYFPSWGLGTLVTVSS
VL: EIVMTQSPATLSVSPGERATLSCRASQSVSSNLAWYQQKPGQTPRLLIYGSSTRATGIPARFSGSGSGTEFALTISSLQSEDFAVYYCQQYNNWPPPWTFGQGTKVEIK
notes: as for B1
binds: [4] | [5] | [6]

B14: RUPA-161 (antibody, V domains shown)
VH: QVQLVQSGAEVKKPGASVKVSCKASGYTFLYHDIIWMRQATGQGPEWMGWINPNTGNTGLAQKFQGRVSLTRNMSSGTAYMELRSLRSEDRAIYYCARGVGTYHGSGGWFDPWGQGTLVTVSS
VL: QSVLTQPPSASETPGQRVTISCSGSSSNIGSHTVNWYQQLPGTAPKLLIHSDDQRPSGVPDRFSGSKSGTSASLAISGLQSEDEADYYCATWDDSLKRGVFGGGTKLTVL
notes: as for B1
binds: [4] | [5] | [6]
